Target: BoNT/A receptor on mouse brain synaptosomes (mouse)

inactive BoNT/A toxin (formaldehyde-inactivated BoNT/A, Metabiologics, Inc.), unlabeled (from UniProt P0DPI1 2-1296)
IC50: 13 nM | percent inhibition: 100% | percent inhibition at 2.0 µg: 98%
